The values that follow come from the NTF2 design screens of Basanta et al. (2020).

This data set is described as follows: protease stability score; higher = more stable; yeast display proteolysis, trypsin and chymotrypsin.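 Also: relative to predicted unfolded state with 0 unfolded-like and 1 meaning tenfold more protease.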
With “SEHEEEVKHFIELIVHFLKTGDEDHLAKMADPHVRLHIGDKEFHGREDFSKWVHLLLHHWRLKTFILRRVHVQGEKAHIDGQLDFDVDGKKTLLDVHLTVRKIDGRWFIETVIDG”, the protease stability score came to 2.35.

With “SEHEEHIHKLMREWIEALLTGDEEHIEHLVDPHDRLNIDGRHYHGRENATKALHQKREQIRIEHIRVDDVKFYGDKVHVEMTVHGNINGKRIEIDTRFIIVVIDGVLRSFEFRHK”, the protease stability score turned out to be 0.122. With “SEHEEHIKHLAEEWIRLVLTGNEEIIDHLFDPNVRVEIDGREMIGREKMNEWMRHVLRHWRTHIVIRRMTAIGDKAHSDGELILHVGDKTIRTKVHFHLVIIDGRIHEVSVDIR” the figure was 1.58. With “SEHEEHIKRHIEHVIHHWMTGNWEELLRLMDPNVRLILHIGDKEIHSIGMEEILRRLHEYKKKIKNATIHIDHIDMQGDKTTIHETIHIGDYVYDTRIILVIVNGRIKRIEYQVH”, the protease stability score was 0.128.

As for “SEHEEHLKHISELMVKLFLTGDEELINHLADPDTRLNINGVHFIGREHAVKASKDFWDELGVNHIEIEDRKVINGRVTMTGHVHVGDKYRRTQNYLVVVNGRLKNVEWRID”, the protease stability score was 0.806. Then “SEHEEHVRSAIERLSHAWRTGNEELFKELVDPHTRFIYGNKNMHGWEISEFFRRRVKGMTLHEVDIHHVEVINGRVHVNSILRGEINGKDTFEDHELHARKVDGRWVVTEMTIR”, with 0.732.

Sequence “SEHEEIMHKALLFLIYVLLTGDEEILHELLDPNARLDVNGREKHGREDWVQLKRELIHKIKNVRIELHDMKVIGDFLISDQRHDYDGREYKMDVFAFKVDGQWKVREEKLD” returned a protease stability score of 1.44.

The sequence “SEHEEKSKEASEQMFQILRTGDWHKWLELLDPHYQLEIGDKRFHGMEISSELLRHLLEELGVERVEVYVKHQETQGDKVINDGSVDINGRELRMILYARKVDGRWVLKSMKVK” displayed a protease stability score of 1.39. Then “SEHEELLERIAEFVMKSWITGNEELDERLADPDARSIVNGKHLHGRELHSEFLRKLLEQLRIHHIHMTDRRVFDGRAIEHSVVHGEIDGVKVTVEVHIRVVVINGRLKSLRIEIR”, with 0.149.

Consider “SEHEEMEQDAREIMERVFHTGDETTMRKLADPHVKFHIGDKLHVGRELFDNFVRYVLEKFKNIRVETEEVRDVNGVVIQDLDENYNGQRYKVRWVMVKINGKWTIERVEIR”, for which the protease stability score is 0.599. With “SEHEERMRRYIEIFIHNLITGDEHMINRMADPSTIVIINGVRLWGREEFSKWVRRERERIDHIEMRIEHLDVQGDKATVDVRVEEHVGDKSEERSLIIRLIVVNGRSHSMHFEVR” the figure was 1.59. Then “SEHEEVASRVTTEIIHNLLTGDWQRTTELMDPNTKLDVNGQHHHGWELYHKVLREWHEELRVHDMKEHDLKVIDGVAFSNMRVDIEINGVRFETEIRIIVVVVNGRIKSISFESK”, with 0.771; and “SEHEEYNRELSELFWHWFQTGDEEMMNKNVDPDARMIVGEKTHHGWEEFVKLLRETLKRLGADHIILRRMNVQGNKSHIDGEIRINGVTIKTELDLVVVDGRISSLRLSFH”, with 1.05.

With “SEHEHELIEFAELFREIIATGDEDALRRLLDPNTQWDFNGVDLHGRDEVIKELRRWRDRFPNMRVHIRRIRLEVINGRLQLDLHTFVEFDGVEFVQHIHLHIEKVNGRWSVHHIEVRYR”, the protease stability score stood at 1.1. Then “SEHEHIAEKMSELLREIVETGDFEQLERLADPHVKLNVDGRNFHGMERFRELKERIRREFGVDHIHVEVERVEVIDGVVINHTKLIIEQGDKRRESRTTLIINKVNGQWRLDSVRVE”, with 0.488. Then “SEHEHMIQVALELWLHTLHTGDEHKEERLHDPHARLRIGDKELHGREDVIRWMRKVKNVTINRVEVRRINFQGDKAILLVRIDGEFDGRRIDTEVIIIVVKVDGRWLFESMEID”, with 1.31; and “SEHEHSSRIAIELLLKTLKTGDERKIEENFDPNVRLIFEGRHIVGREEVFQHIHHLAHELRIEDMKIRRVEHVNGRIHIDLHVVIEINGQRIETDSHMVILKIDGKWKIELLEWR”, with 1.61. With “SEHEKFSEKYFQIWVRAVRTGDEDTLRELIDPDDRLDVNGQNFHGWEQVNEHLLHFIRKIKNVRIEVHLEHHEVQGDKIHLDMTLHLNVDGRETRHKTEIIARKIDGRWVFTEFRIK” the figure was 2.26; with “SEHEKHNRDVVRIVLHALLTGDEELFEENADPNVRTEIDVNGKEIQIHGRSKWVEWLRREIERFDHVRIDLKRIDVQGDKLHTDGHLRLKQGDKEITTDVRLHIVVVDGRIDSMEMSVH”, 2.1; with “SEHEKIIVEWTRLLQEILRTGDEEMWLKLLDPHAKTHINGKDIHGMEEAARFWKELHKHMRIEDEEVRETRVVGNKAIYHMERKVNINGRTHEQEVELRVIIVDGQIKKISIHIH”, 0.439. For the sequence “SEHEKMMREIAKEYIDWFLTGDEELERNLADPDTRLNVDGREHHGMEEVIDLWRRIGLSNVDLRIHHWRAYGEFVYFDGEYTVGDKKRKVHFEYFVVNGRLKEVRVEIR”, the protease stability score amounted to 1.51. The sequence “SEHEKVYHDAIKIYQDNLKTGDEKRMEKFFDPNVIIHIGDKELVGRELVRHQATELARRVDHVEVHIKHVDVQGEKIRINGEIEIEINGRTIRFETHLVILKVNGRWIIHSEFIL” returned a protease stability score of 1.04. As for “SEHELIAHEIVERWVHDVNTGDWENLHRLFDPNTKIDFNGVHLHGRRSLEEWIHEHLRRADHFEVRIKDIRVQGEKSVANTHVNVNINGQEYRRDTSLILIIVDGKVKTMTIRVH”, the protease stability score was 1.5. The sequence “SEHEREAREHMEIFRRAFRTGDEQFLTELADPNVRVDVNGVELHGRENFLRVMRHIRFKDIRIKRSREINGVLFIDVRERGIVNGQETTFESEIIILKVDGRWIIEELIIL” yielded a protease stability score of 1.39.

In turn, “SEHETEVMRLAEITVKSFLTGDEDTMHHLLDPHVRSDVNGRHHIGRERWLKVVEDMLRHLRLTTIEIHHVDAINGRLHTDTRVNVHINGQEVILETELIIVIVDGVVKEVHWVVK” gave a protease stability score of 0.994. With “SEHFEIALEILKLFLRSRHTGDWKTMEEMADPDVRLEVGEYTNHGWEEILRVLEELRFEIHFIHDHDVKFQGDKLHLDGHVDGVRRVDGQEVRIVSHIEIISVVVNGRAKSYSEHWV” the figure was 0.631; with “SEHHEEATEATKHFVHLMRTGDFDRLLELADPHVRVRINGKNLIGREDLDKLWKELGLTNVDVRIDDFSHQGDKVEIHTREHFNGRTVDVIVILEKINGQWVIKRREQR”, 0.4; with “SEHHEKLLHLTTLFLEAFWTGDEDIFHHLLDPNVKSIFNGREIHGRHIFSDLRRQIRVERTHVEHEQIVDGRVFMHGKSDGHINGRTHKSHLEIEIVVFDGKVERIKIELR”, 0.499. Then “SEHHEVTEKLTRIILHQWDTGNERSLRKMMDPNARVEIEIGDKSWEYHGRENFRHAVERFDYLDNKEHKDERIVGDFSIIDGRVDGVQGDKRYDTNVEIIIIIVNGRIRAIRFIVR”, with 1.26; and “SEHHKEAREMVEELIRLYETGDEDTLRTLADPHVRQDINGVDYVGREFAADLLIDEMREIRSHIHVHRIHTYNGQVHVDGHLEFIIGDKSYRLRVHMVVEKVDGKWLHRSEHYK”, with -0.116; and “SEHHKLLEDFLHLMQEALHTGNEDFIAELADPNVRINWNGKETHGRENLRRMLHEWRERWGIDRIEFHMKSISVQGDKIDLEMQVHINGRHETMHVRITVINGRLKDVRYELR”, with 1.66.

In the case of “SEHHKLLVEIAHLWIRNVLTGDEDRLKEMADPNVRIHINGVDIHGMEDFVRHVHERLKEIWIRIEIKRMVPYDGRAEVDGTMHVIVNGQKLSRRVHYDIIIVDGVLQEQHVHVE”, the protease stability score stood at 1.64. Then “SEHKEEIIQLAEEIFRKIVTGDWERFWELADPHVRFDVGDKTRHGREKVIEYINRFMKELRFERFHIDDIRVIDGVVVIHTKLRFRVGDFQLHHHTRHEIMMVDGRIQFLRIEWE”, with 0.096; and “SEHKEEVHEMIKLFLEALRTGDEDWLKTMIDPNDRIRVGDKELHGREEFDKIVHFFKNARIHLHHYSVINGRVTIHMILHFNGKTFEIHIYAEKVDGRWRHRESEMHER”, with 1.38; and “SEHKELVEHITKLSWELLKTGDEEILLHLADPDMKVEVGDKEMHGREEWARFLIETLRRVKNLRVDLHRVHIQGEKAHVDGTIFIDGVEFTDQLNFVVINGRIKHINIIDR”, with 1.46. Then “SEHLEIAMRVIREDLIKSSTGDWRRLEDYLDPHVKIQVGNKEIVGWEEVEKNMEHLRIEFRDYRIKDARNIDGKINVHGEIVEIIRVGNKTYQMRTEVDFIATKVDGQWTIHSIRFN”, with 1.15. With “SEHQEVFEEFVRRWIEDMETGNEEQLRHLADPDARIVINGREHHGREWVSTFLMKRIRHLGVKHVEIDDKKQIGEKIHVRVTIHFDGVTVDTELIALKINGRWFMHEVIFR” the figure was 1.5; with “SEHSHFLVELALIFWKALVTGDEERLDRLIDPNTRLEIGDKEEIGRENIIRKLDHIRIKTEEITVRDYRTQGDKFHMIGHVDLHFDFNGVRHRFTTEVRVDLTTVDGKIHSHHIKYR”, 0.145.

Consider “SEHTHAAVRIMELESEYLTTGDWESVRRLLDPHVQVEIGDFHAHGWEERVRRMREIRVKVQDLRIRTIDFYNGRVELHFELHVRIEFNGRDVRQDTEIVLIVLKVNGKWLVDKIRFE”, for which the protease stability score worked out at 0.901. With “SEIDEEIEKHFELYTHALHTGDEHVLRRLLDPDARLTVGDKTFHGREQVVKELSREIHELRVRDMEIKDEKLVGDKLHQDTRLQFKFNGKEHEIITNFIWLKVNGQWVIREVRYD” the figure was 1.25; with “SEIDEFSEKAFRLLLETLQTGDWRLTSELVDPNVRVHFEGHEHVGMEEVSKVVRHWRVKRIELKHLEVIGEKMHMILHQDIEVNGQRVRTDMIVTADKIDGVWLLTEVRIK”, 1.59. In the case of “SEIDEIAHKMAKEWTKDFVTGDEDHWKRLADPNTRVHINGVELHGRETSSEFKEKLRRHMGVDHMELRVRHVDLFNGRVHMETELIYRVGDKEIRTETHVDLDIVNGRIKEVRYEIR”, the protease stability score was determined as 0.734. With “SEIDEWLHRWFNLWIDAFITGDEDFLKELADPDVRLVDGDFEKVGREEFTRSMRQYLRHARVDHFRIKHQHMQGDKIHVHGHIEMTINGKHIRHEIRLRFVVINGRFHSMHIEID” the figure was 0.975. With “SEIDHILKLLAELWIRLWLTGDEEIIEELADPNVRLDINGKDAHGWERLSEVLRLEIKEMRIDHHRLREIRVQGNKSEVDGRLRGTFNGKHREVDVHIEIEVVNGRFKRIRIEFR” the figure was 1.42. With “SEIDHIVKELIRRESEYLKTGDEDAFHDLFDPSTRIEINGQEFHGREWHKHLLKELRFHSIELHDWRIVGDKVEMDTRMLTEVGDKRDYRRTTMHATKFDGKWYLTRVIIE” the figure was 1.24; with “SEIDKESEEVARRLLHMEYTGDEEKMIKLLDPHVRLDINGQLFVGREEAERALRQYWHRVDHIHSIEIHDYKTQGDWFHLDIRVDGEIDGQRRDFRVIVHTRIVNGKVKEMHLKFH”, 1.65; with “SEIDKHAEDVMRIWEHVHRTGNEDTLSHLLDPDVKVEIHYDGVDIRLHGMELVSEFLTRFAHHARNKDFKEKDLELQGNKIIRTGIVVFDYDGVEIRRWTHEEIRVVNGRFTHIKKEFH”, 0.442.
